Source: article PMC10315710, “Diacylglycerol kinase ζ interacts with sphingomyelin synthase 1 and sphingomyelin synthase‐related protein via different regions” (FEBS Open Bio, 2023)

Biological target: T1, Twin‐Strep (TS)‐tagged DGKζ (TS‐DGKζ) (human, UniProt Q13574 1-928)
T1 construct: full-length (FL) DGKζ (DGKζ1, 104 kDa), human; no cleavage is reported and the protein is detected by anti-TS; also called purified DGKζ; source: HEK293 cells, purified (Strep-Tactin XT beads, without detergents); not shown: Twin-Strep, N-terminal, kept
Test: pull-down; purified GST-SMS1-CT or GST-SMSr-NT on glutathione-Sepharose beads, purified Twin-Strep-tagged DGKζ added for 2 h at 4 °C; 20 mM Tris-HCl pH 7.5, 150 mM NaCl, 1 mM EDTA, 0.1% Triton X-100; western blot with anti-GST and anti-TS
Conditions: both partners purified

T1 sequence (Q13574 whole entry): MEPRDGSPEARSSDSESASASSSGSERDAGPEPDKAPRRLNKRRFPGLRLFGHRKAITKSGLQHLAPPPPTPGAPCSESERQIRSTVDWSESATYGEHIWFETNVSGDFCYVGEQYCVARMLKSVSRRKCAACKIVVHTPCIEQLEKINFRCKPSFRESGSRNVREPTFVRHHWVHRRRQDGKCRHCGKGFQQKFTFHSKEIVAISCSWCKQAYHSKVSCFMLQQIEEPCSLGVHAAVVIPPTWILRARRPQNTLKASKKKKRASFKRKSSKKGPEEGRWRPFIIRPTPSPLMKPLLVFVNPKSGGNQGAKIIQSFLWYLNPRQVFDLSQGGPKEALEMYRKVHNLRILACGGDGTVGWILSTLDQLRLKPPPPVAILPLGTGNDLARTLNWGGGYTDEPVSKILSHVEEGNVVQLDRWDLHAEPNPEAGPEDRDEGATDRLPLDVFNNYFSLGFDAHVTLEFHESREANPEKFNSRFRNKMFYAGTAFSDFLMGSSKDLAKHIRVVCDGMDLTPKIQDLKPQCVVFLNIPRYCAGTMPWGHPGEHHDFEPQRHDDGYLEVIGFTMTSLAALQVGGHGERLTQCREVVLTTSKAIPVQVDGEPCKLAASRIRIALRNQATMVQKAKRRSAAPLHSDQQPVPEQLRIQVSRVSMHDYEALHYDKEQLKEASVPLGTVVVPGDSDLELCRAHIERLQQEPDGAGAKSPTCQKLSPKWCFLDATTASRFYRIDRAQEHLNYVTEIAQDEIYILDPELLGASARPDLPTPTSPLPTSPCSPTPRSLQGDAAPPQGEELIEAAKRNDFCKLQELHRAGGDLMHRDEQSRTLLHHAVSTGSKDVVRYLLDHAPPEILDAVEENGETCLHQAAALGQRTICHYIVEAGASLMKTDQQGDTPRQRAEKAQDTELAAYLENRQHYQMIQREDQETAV

Binder	binding result
GST‐SMSr‐NT (domain or fragment, human, UniProt Q96LT4 1-151, looked up, SMSr, N-terminal cytosolic region (contains SAMD); SMSr-NT is defined as aa 1–151; also called GST-fused SMSr‐NT; GST-tagged SMSr‐NT; source: bacterially expressed, purified (glutathione-Sepharose beads); not shown: GST, N-terminal, kept) MAGPNQLCIRRWTTKHVAVWLKDEGFFEYVDILCNKHRLDGITLLTLTEYDLRSPPLEIKVLGDIKRLMLSVRKLQKIHIDVLEEMGYNSDSPMGSMTPFISALQSTDWLCNGELSHDCDGPITDLNSDQYQYMNGKNKHSVRRLDPEYWK	binds
GST‐SMS1‐CT (domain or fragment, human, UniProt Q86VZ5 348-413, looked up, SMS1, C-terminal cytosolic region; SMS1-CT is defined as aa 348–413; also called GST-fused SMS1‐CT; GST-tagged SMS1‐CT; source: bacterially expressed, purified (glutathione-Sepharose beads); not shown: GST, N-terminal, kept) HTMANQQVLKEASQMNLLARVWWYRPFQYFEKNVQGIVPRSYHWPFPWPVVHLSRQVKYSRLVNDT	binds
